No end group written: not given here.
T1: PACAP-R3 (human, UniProt P41587 24-438)
T1 sequence (looked up): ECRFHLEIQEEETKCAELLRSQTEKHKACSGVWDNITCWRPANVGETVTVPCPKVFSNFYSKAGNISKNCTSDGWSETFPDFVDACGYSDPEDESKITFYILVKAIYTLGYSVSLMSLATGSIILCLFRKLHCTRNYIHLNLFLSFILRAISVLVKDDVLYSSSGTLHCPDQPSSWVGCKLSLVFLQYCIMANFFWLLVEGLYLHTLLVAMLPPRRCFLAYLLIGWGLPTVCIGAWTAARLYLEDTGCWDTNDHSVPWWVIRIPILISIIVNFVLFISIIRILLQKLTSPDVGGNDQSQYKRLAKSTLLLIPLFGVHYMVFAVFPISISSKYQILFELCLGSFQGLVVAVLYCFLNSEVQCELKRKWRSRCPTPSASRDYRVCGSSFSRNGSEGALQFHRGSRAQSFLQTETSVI


target: T1, PACAP-R3; assay: cell-based or functional assay

R3 EC50	R3 Selectivity	Binder
	70 ratio	HSDAVFTDNYTRLRKQMAAKKYLNSIKNER [R3P136]
200 pM	30 ratio	HSDAVFTDNYTRLRKQMAAKKYLNSIKNNR [R3P143]
400 pM	100 ratio	HSDAVFTDNYTRLRKQMAAKKYLNSIKNKE [R3P155]
	30 ratio	HSDAVFTDNYTRLRKQMAAKKYLNSIKNMR [R3P142]
300 pM	100 ratio	HSDAVFTDNYTRLRKQMAAKKYLNSIKNTR [R3P148]
3000 pM	100 ratio	HSDAVFTDNYTRLRKQMAAKKYLNSIKNPR [R3P144]
200 pM	500 ratio	HSDAVFTDNYTRLRKQMAAKKYLNSIKNSR [R3P147]
400 pM	50 ratio	HSDAVFTDNYTRLRKQMAAKKYLNSIKNHR [R3P139]
500 pM	80 ratio	HSDAVFTDNYTRLRKQMAAKKYLNSIKNVR [R3P149]
200 pM	200 ratio	HSDAVFTDNYTRLRKQMAAKKYLNSIKNKD [R3P153]
800 pM	50 ratio	HSDAVFTDNYTRLRKQMAAKKYLNSIKNWR [R3P150]
	100 ratio	HSDAVFTDNYTRLRKQMAAKKYLNSIKNLR [R3P141]
300 pM	100 ratio	HSDAVFTDNYTRLRKQMAAKKYLNSIKNRR [R3P146]
300 pM	100 ratio	HSDAVFTDNYTRLRKQMAAKKYLNSIKNFR [R3P137]
300 pM	50 ratio	HSDAVFTDNYTRLRKQMAAKKYLNSIKNIR [R3P140]
500 pM	100 ratio	HSDAVFTDNYTRLRKQMAAKKYLNSIKNQR [R3P145]

Further lines, the binder ahead of its results:

Binder	R3 EC50	R3 Selectivity
HSDAVFTDNYTRLRKQMAAKKYLNSIANKR [R3P115]	6000 pM	50 ratio
HSDAVFTDNYTRLRKQMALKKYLNSIKNKR [R3P104]	200 pM	500 ratio
HSDAVFTDNYTRLRKQMAVKKYLNDLKKGGT [R3P14]		3 ratio
HSDAVFTDNYTRLRKQMAAKKYLNSIPNKR [R3P125]	2000 pM	30 ratio
HSDAVFTDNYTRLRKQMAAKKYLNSINNKR [R3P124]	200 pM	15 ratio
HSDAVFTDNYTRLRKQMAAKKYLNSIINKR [R3P122]	200 pM	
HSDAVFTDNYTRLRKQMAHKKYLNSIKNKR [R3P101]	1000 pM	400 ratio
HSDAVFTDNYTRLRKQMAGKKYLNSIKNKR [R3P100]	300 pM	30 ratio
HSDAVFTDNYTRLRKQMAAKKYLNSIWNKR [R3P131]	300 pM	70 ratio
HSDAVFTDNYTRLRKQMAAKKYLNSICNKR [R3P116]	1000 pM	20 ratio
HSDAVFTDNYTRLRKQMAAKKYLNSIRNKR [R3P127]	500 pM	600 ratio
HSDAVFTDNYTRLRKQMAAKKYLNSISNKR [R3P128]	300 pM	200 ratio
HSDAVFTDNYTRLRKQLAAKKYLNDIKK-NH2 [R3P13]		33 ratio
HSDAVFTDNYTRLRKQMAAKKYLNSIENKR [R3P118]		30 ratio
HSDAVFTDNYTRLRKQMAAKKYLNSIVNKR [R3P130]	1000 pM	40 ratio
HSDAVFTDNYTKLRKQLAAKKYLNDILNGGT [R3P11]		3 ratio
HSDAVFTDNYTRLRKQLAAKKYLNDIKKGGT [R3P12]		> 200 ratio
HSDAVFTDNYTRLRKQMAAKKYLNSIHNKR [R3P121]	1000 pM	50 ratio

Binder	R3 EC50	R3 Selectivity
HSDAVFTDNYTRLRKQMAFKKYLNSIKNKR [R3P99]	1000 pM	40 ratio
HSDAVFTDNYTRLRKQMAKKKYLNSIKNKR [R3P103]	50 pM	8 ratio
HSDAVFTDNYTRLRKQMAAKKYLNSIQNKR [R3P126]	1000 pM	200 ratio
HSDAVFTDNYTRLRKQMARKKYLNSIKNKR [R3P109]	10000 pM	100 ratio
HSDAVFTDNYTRLRKQMAIKKYLNSIKNKR [R3P102]	60000 pM	5 ratio
HSDAVFTDNYTRLRKQMAAKKYLNSIYNKR [R3P132]	200 pM	
HSDAVFTDNYTRLRKQMAMKKYLNSIKNKR [R3P105]	300 pM	
HSDAVFTDNYTRLRKQMAAKKYLNSIFNKR [R3P119]	500 pM	30 ratio
HSDAVFTDNYTRLRKQMAWKKYLNSIKNKR [R3P113]	300 pM	10 ratio
HSDAVFTDNYTRLRKQMAAKKYLNSIGNKR [R3P120]	200 pM	50 ratio
HSDAVFTDNYTRLRKQMAAKKYLNSITNKR [R3P129]		50 ratio
HSDAVFTENYTKLRKQLAAKKYLNDLKKGGTSWCEPGWCR [R3P19]		30 ratio
HSDAVFTDNYTRLRKQMAAKKYLNSIKNCR [R3P134]	400 pM	100 ratio
HSDAVFTDNYTRLRKQMAQKKYLNSIKNKR [R3P108]	300000 pM	3 ratio
HSDAVFTDNYTRLRKQMASKKYLNSIKNKR [R3P110]	500 pM	200 ratio
HSDAVFTDNYTRLRKQMATKKYLNSIKNKR [R3P111]	3000 pM	
HSDAVFTDNYTRLRKQMAYKKYLNSIKNKR [R3P114]	2000 pM	10 ratio
HSDAVFTDNYTRLRKQMAPKKYLNSIKNKR [R3P107]	200000 pM	5 ratio

Reference: patent EP1192182B1, “PITUITARY ADENYLATE CYCLASE ACTIVATING PEPTIDE (PACAP) RECEPTOR 3 (R3) AGONISTS AND THEIR PHARMACOLOGICAL METHODS OF USE” (priority 1999, dated 2001)
